As usually defined, the Kd is a measure of binding affinity in units of concentration. The IC50 is the midpoint of a concentration-inhibition curve. Low values mean greater potency in that assay, high ones weaker potency in that assay.

Assay [1] addresses IgG2, IgG3 and IgG4. The assay is described as follows: method not stated (data not shown).
Assay [2] addresses Fab with lambda light chain (Cλ). The assay is described as follows: ELISA; reference is the Fab with kappa light chain.
Assay [3] concerns the target 4D5 Fab scaffold possessing a human IgG1 CH1 and a Kappa light chain. The assay is described as follows: SPR.
The target is the same in assay [4]. The assay is described as follows: equilibrium SPR.
For assay [5] the target is unchanged. The assay can be described thus: fluorescence polarization with Alexa-Fluor labeled Protein-G, pH varied. (In general: Fluorescence polarisation rises when a labelled molecule tumbles more slowly, as on binding a larger partner.)
Assay [6] concerns the target FabHS (a human 4D5 scaffold with residues PEELRTNK replacing light chain positions 122-129). The assay can be described thus: protein ELISA. A general note: In an ELISA, binding on a coated surface is turned into a signal by an enzyme label.

B1: Protein-G-A1 (designed binder)
chain: MKGETTTEAVDAATAEKVFKQYANDNGVDGEWTYDDATKTFTVTEKPEVIDASELTPAVTTYKLVINGRTLSGYTTTTAVDAATAEKVFKQYAYVHEVDGEWTYDDATKTFTVTEKPEVIDASELTPAVTTYKLVINGRTLSGETTTKAVDAETAEKAFKQYANDNGVDGVWTYDDATKTFTVTE
The molecule B1 registered a fold decrease in affinity relative to human IgG1 in assay [1] of 20 to 50 fold. Besides, the EC50 ratio, Cλ Fab over CK Fab in assay [2] is over 5000 fold. Also, in assay [3], the fold higher affinity than wild-type Protein-G came out at 100 fold. The molecule further returned a Kd in assay [4] of 25 nM. In addition, in assay [5], the fold decrease in affinity from pH 7.5 to pH 4 stood at 1000 fold; the fold loss of affinity between pH 5.5 and pH 4.0 is 300 fold.

B2: Protein-G-HS C7 (designed binder)
chain: MKGETTTEAVDAATAEKVFKQYANDNGVDGEWTYDDATKTFTVTEKPEVIDASELTPAVTTYKLVINGKTLKGETTTEAVDAATAEKVFKQYANDNGVDGEWTYDDATKTFTVTEKPEVIDASELTPAVTTYKLVINGRTLSGETTTKAVDAETAEKAFKQYAYGAVVDGVWTYDDATKTFTVTE
The molecule B2 yielded an IC50 in assay [6] of 100 nM.

B3: Protein-G-HS C6 (designed binder)
chain: MKGETTTEAVDAATAEKVFKQYANDNGVDGEWTYDDATKTFTVTEKPEVIDASELTPAVTTYKLVINGKTLKGETTTEAVDAATAEKVFKQYANDNGVDGEWTYDDATKTFTVTEKPEVIDASELTPAVTTYKLVINGRTLSGETTTKAVDAETAEKAFKQYSRPHVVDGVWTYDDATKTFTVTE
In the case of B3, the half-maximal inhibitory concentration (IC50) in assay [6] worked out at 8 nM.

The record behind these values is US20180044385A1.
